We go through two substances from PMC6267984.

This experiment addresses Orai1-CFP (UniProt Q96D31).
Sequence of UniProt Q96D31 (Q96D31 whole entry): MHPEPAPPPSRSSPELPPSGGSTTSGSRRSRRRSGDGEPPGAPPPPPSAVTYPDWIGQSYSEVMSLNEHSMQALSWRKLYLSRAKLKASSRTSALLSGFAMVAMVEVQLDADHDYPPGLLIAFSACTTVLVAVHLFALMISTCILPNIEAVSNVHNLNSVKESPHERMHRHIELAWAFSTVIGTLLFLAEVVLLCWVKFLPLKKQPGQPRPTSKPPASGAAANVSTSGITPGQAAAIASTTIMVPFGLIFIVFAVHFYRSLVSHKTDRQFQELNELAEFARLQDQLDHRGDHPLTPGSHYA

As to “STIM1-G379E (from UniProt Q13586 23-685) (natural protein)”, the constitutive Ca2+ entry at rest amounted to 6.6 nM.
For STIM1-G379E-ΔK (domain or fragment) the value was 3.5 nM.
